What follows are substances tested against DYNC2H1 [human (endogenous in RPE1)] (assay: GFP-trap purification, TMT-labelling and mass spectrometry). Conditions: RPE1 WDR34 KO cell lines expressing GFP proteins, serum-starved for 24 h; read off a plot.

ratio to parent | Substance
0.45 | GFP–WDR34-WT mutant S410I [human] / DYNC2H1 [human (endogenous in RPE1)] chain 1 S410I
0.62 | GFP–WDR34-WT mutant R447Q [human] / DYNC2H1 [human (endogenous in RPE1)] chain 1 R447Q
0.22 | GFP–WDR34-WT mutant T354M [human] / DYNC2H1 [human (endogenous in RPE1)] chain 1 T354M
0.93 | GFP–WDR34-WT mutant R447W [human] / DYNC2H1 [human (endogenous in RPE1)] chain 1 R447W
2.7 | GFP–WDR34-WT mutant R206C [human] / DYNC2H1 [human (endogenous in RPE1)] chain 1 R206C

More lines, now with the values behind:

Substance | ratio to parent
GFP–WDR34-WT mutant C148F [human] / DYNC2H1 [human (endogenous in RPE1)] chain 1 C148F | 0.55
GFP–WDR34-WT mutant A22V [human] / DYNC2H1 [human (endogenous in RPE1)] chain 1 A22V | 0.93
GFP–WDR34-WT mutant A341V [human] / DYNC2H1 [human (endogenous in RPE1)] chain 1 A341V | 2
GFP–WDR34-WT mutant P390L [human] / DYNC2H1 [human (endogenous in RPE1)] chain 1 P390L | 1.6
GFP–WDR34-WT mutant R182W [human] / DYNC2H1 [human (endogenous in RPE1)] chain 1 R182W | 2
GFP–WDR34-WT mutant G393S [human] / DYNC2H1 [human (endogenous in RPE1)] chain 1 G393S | 0.3
GFP–WDR34-WT mutant K436R [human] / DYNC2H1 [human (endogenous in RPE1)] chain 1 K436R | 2
